{"source": "paper PMC12394075", "about": "“Domain coupling in activation of a family C GPCR” (Nature Chemical Biology, 2024)", "proteins": {"B1": {"name": "full-length mGluR2 (FLAG-tagged, purified in detergent micelles) (receptor, rat, UniProt P31421 19-872, looked up)", "chain": "EGPAKKVLTLEGDLVLGGLFPVHQKGGPAEECGPVNEHRGIQRLEAMLFALDRINRDPHLLPGVRLGAHILDSCSKDTHALEQALDFVRASLSRGADGSRHICPDGSYATHSDAPTAVTGVIGGSYSDVSIQVANLLRLFQIPQISYASTSAKLSDKSRYDYFARTVPPDFFQAKAMAEILRFFNWTYVSTVASEGDYGETGIEAFELEARARNICVATSEKVGRAMSRAAFEGVVRALLQKPSARVAVLFTRSEDARELLAATQRLNASFTWVASDGWGALESVVAGSERAAEGAITIELASYPISDFASYFQSLDPWNNSRNPWFREFWEERFHCSFRQRDCAAHSLRAVPFEQESKIMFVVNAVYAMAHALHNMHRALCPNTTHLCDAMRPVNGRRLYKDFVLNVKFDAPFRPADTDDEVRFDRFGDGIGRYNIFTYLRAGSGRYRYQKVGYWAEGLTLDTSFIPWASPSAGPLPASRCSEPCLQNEVKSVQPGEVCCWLCIPCQPYEYRLDEFTCADCGLGYWPNASLTGCFELPQEYIRWGDAWAVGPVTIACLGALATLFVLGVFVRHNATPVVKASGRELCYILLGGVFLCYCMTFVFIAKPSTAVCTLRRLGLGTAFSVCYSALLTKTNRIARIFGGAREGAQRPRFISPASQVAICLALISGQLLIVAAWLVVEAPGTGKETAPERREVVTLRCNHRDASMLGSLAYNVLLIALCTLYAFKTRKCPENFNEAKFIGFTMYTTCIIWLAFLPIFYVTSSDYRVQTTTMCVSVSLSGSVVLGCLFAPKLHIILFQPQKNVVSHRAPTSRFGSAAPRASANLGQGSGSQFVPTVCNGREVVDSTTSSL", "notes": "also called full-length mGluR2 construct; full-length receptor"}}, "biological_target": "the molecule itself", "test": "SEC; Superose 6 10/300 increase GL equilibrated in detergent-free buffer, after elution in 0.005% MNG/GDN/CHS"}
{"protein": "B1", "values": [{"measurement": "binding result", "result": "binds"}]}
